Test results: patent publication US7067619 (LA JOLLA CANCER RESEARCH FOUNDATION, dated 2006)
Bridge positions count the residues as written; N and C are the ends. Ends that are not written are not given here. * marks the point of attachment. Cam = NC(=O)C*

B1: CRGDGWC phage (peptide)
peptide: CRGDGWC
modifications: disulfide 1-7 (inferred)
notes: on fuse 5 phage, fused to pIII; also called phage expressing the peptide A*CRGDGWC*G; not shown: The pIII coat protein of the fuse 5 phage vector and its junction residues
B2: CRGDGFC phage (peptide)
peptide: CRGDGFC
modifications: disulfide 1-7 (inferred)
notes: on fuse 5 phage, fused to pIII; not shown: The pIII coat protein of the fuse 5 phage vector and its junction residues
B3: cyclic peptide GACRGDCLGA (peptide)
peptide: GACRGDCLGA
modifications: disulfide 3-7 (inferred)
notes: synthetic; also called cyclic CRGDCL peptide

molecular target: T1, α5β1 integrin isolated from human placental extract (human, UniProt P08648 42-1049; P05556 21-798); test: phage panning on coated integrin
T1 construct: coated on plastic wells or captured by anti-α5 antibody; also called fibronectin receptor
Experimental: In the first panning, the integrins were coated at 5 µg per well, and the library pool was incubated for 4 hours at 25° C. in TBS buffer containing 1% bovine serum albumin and 1 mM MnCl_2 (α_5β_1, α_vβ_3) 1 mM MgCl_2 ($\alphaIIb\beta_3$) or 1 mM CaCl_2 (α_vβ_5).

T1 sequence (P08648 42-1049, chain 1 of 2): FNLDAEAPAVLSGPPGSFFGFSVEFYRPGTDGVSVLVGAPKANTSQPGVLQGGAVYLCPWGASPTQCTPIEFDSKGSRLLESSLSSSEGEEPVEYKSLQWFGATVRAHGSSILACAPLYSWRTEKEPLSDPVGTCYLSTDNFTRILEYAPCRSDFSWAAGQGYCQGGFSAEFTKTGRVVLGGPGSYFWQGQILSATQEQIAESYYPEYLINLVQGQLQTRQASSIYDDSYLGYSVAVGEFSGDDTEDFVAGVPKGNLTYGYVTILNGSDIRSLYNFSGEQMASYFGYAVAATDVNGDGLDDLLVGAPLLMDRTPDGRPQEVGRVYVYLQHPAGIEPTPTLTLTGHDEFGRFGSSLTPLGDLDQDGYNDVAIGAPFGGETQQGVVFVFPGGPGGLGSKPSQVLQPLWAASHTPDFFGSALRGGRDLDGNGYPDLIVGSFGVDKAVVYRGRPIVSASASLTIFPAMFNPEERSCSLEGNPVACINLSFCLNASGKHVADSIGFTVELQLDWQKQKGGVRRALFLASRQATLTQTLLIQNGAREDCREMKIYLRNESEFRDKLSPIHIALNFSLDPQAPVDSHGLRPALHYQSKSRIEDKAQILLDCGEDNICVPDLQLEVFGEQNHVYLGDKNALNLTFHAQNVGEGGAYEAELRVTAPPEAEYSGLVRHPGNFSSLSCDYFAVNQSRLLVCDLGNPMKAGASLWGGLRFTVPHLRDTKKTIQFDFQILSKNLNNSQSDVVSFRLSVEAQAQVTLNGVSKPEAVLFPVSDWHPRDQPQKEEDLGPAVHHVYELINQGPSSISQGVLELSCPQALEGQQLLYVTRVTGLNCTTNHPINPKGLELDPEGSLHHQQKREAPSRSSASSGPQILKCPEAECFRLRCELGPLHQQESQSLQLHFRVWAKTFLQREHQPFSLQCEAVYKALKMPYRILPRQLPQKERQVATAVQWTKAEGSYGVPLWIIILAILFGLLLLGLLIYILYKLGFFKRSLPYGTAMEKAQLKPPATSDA
T1 sequence (P05556 21-798, chain 2 of 2): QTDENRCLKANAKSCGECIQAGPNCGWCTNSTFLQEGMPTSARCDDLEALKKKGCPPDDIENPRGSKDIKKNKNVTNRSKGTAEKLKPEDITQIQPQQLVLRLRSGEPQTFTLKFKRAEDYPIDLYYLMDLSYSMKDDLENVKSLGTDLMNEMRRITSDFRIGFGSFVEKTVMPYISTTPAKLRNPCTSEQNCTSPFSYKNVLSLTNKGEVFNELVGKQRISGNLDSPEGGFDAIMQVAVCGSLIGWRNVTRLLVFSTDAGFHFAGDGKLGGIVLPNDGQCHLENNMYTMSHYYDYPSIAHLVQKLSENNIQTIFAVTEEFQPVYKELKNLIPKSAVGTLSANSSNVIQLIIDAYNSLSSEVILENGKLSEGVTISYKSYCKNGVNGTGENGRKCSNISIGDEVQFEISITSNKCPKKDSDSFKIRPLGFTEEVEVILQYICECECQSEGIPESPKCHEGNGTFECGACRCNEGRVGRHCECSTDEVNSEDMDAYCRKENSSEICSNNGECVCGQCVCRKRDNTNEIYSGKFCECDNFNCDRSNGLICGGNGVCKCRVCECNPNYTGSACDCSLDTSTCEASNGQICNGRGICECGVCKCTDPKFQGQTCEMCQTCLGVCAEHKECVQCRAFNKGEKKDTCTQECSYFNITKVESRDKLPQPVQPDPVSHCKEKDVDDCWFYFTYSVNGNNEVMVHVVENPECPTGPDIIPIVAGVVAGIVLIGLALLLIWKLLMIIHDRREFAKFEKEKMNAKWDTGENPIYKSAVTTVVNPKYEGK

Binder	binding result
CGQGMHRLAC (on fuse 5 phage, fused to pIII) [CGQGMHRLAC phage]	binds
CMWLSVNYSC (on fuse 5 phage, fused to pIII) [CMWLSVNYSC phage]	binds
CDWRGDNQFC (on fuse 5 phage, fused to pIII) [CDWRGDNQFC phage]	binds
CRGDGYCVFF (on fuse 5 phage, fused to pIII) [CRGDGYCVFF phage]	binds
CGADSEEGPC (on fuse 5 phage, fused to pIII) [CGADSEEGPC phage]	binds
B1	binds
B2	binds
CRGDCLPTPR (on fuse 5 phage, fused to pIII) [CRGDCLPTPR phage]	binds
CLRGDGLALC (on fuse 5 phage, fused to pIII) [CLRGDGLALC phage]	binds
CREQPASRSC (on fuse 5 phage, fused to pIII) [CREQPASRSC phage]	binds
CRGDGLMCGL (on fuse 5 phage, fused to pIII) [CRGDGLMCGL phage]	binds
CYVNGRAWAC (on fuse 5 phage, fused to pIII) [CYVNGRAWAC phage]	binds
CGQRGDGFCL (on fuse 5 phage, fused to pIII) [CGQRGDGFCL phage]	binds
CRGDGWWC (on fuse 5 phage, fused to pIII) [CRGDGWWC phage]	binds
CRGDNAWC (on fuse 5 phage, fused to pIII) [CRGDNAWC phage]	binds
CRGDNVWC (on fuse 5 phage, fused to pIII) [CRGDNVWC phage]	binds
CRGDRAWC (on fuse 5 phage, fused to pIII) [CRGDRAWC phage]	binds
CQGIDGTPAC (on fuse 5 phage, fused to pIII) [CQGIDGTPAC phage]	binds
CVDCILRYLC (on fuse 5 phage, fused to pIII) [CVDCILRYLC phage]	binds
CKWRSARDLC (on fuse 5 phage, fused to pIII) [CKWRSARDLC phage]	binds
CRGDGQHC (on fuse 5 phage, fused to pIII) [CRGDGQHC phage]	binds
CQGMHGTPAC (on fuse 5 phage, fused to pIII) [CQGMHGTPAC phage]	binds
CPVRRGDGWC (on fuse 5 phage, fused to pIII) [CPVRRGDGWC phage]	binds
CTNVNGRSAC (on fuse 5 phage, fused to pIII) [CTNVNGRSAC phage]	binds
CWRGDHVMPC (on fuse 5 phage, fused to pIII) [CWRGDHVMPC phage]	binds

molecular target: T2, αvβ3 integrin isolated from human placental extract (human, UniProt P06756 31-1048; P05106 27-788); test: affinity chromatography of placental extract
T2 construct: isolated on GRGDSPK-Sepharose; said to be primarily αvβ3
T2 sequence (P06756 31-1048, chain 1 of 2): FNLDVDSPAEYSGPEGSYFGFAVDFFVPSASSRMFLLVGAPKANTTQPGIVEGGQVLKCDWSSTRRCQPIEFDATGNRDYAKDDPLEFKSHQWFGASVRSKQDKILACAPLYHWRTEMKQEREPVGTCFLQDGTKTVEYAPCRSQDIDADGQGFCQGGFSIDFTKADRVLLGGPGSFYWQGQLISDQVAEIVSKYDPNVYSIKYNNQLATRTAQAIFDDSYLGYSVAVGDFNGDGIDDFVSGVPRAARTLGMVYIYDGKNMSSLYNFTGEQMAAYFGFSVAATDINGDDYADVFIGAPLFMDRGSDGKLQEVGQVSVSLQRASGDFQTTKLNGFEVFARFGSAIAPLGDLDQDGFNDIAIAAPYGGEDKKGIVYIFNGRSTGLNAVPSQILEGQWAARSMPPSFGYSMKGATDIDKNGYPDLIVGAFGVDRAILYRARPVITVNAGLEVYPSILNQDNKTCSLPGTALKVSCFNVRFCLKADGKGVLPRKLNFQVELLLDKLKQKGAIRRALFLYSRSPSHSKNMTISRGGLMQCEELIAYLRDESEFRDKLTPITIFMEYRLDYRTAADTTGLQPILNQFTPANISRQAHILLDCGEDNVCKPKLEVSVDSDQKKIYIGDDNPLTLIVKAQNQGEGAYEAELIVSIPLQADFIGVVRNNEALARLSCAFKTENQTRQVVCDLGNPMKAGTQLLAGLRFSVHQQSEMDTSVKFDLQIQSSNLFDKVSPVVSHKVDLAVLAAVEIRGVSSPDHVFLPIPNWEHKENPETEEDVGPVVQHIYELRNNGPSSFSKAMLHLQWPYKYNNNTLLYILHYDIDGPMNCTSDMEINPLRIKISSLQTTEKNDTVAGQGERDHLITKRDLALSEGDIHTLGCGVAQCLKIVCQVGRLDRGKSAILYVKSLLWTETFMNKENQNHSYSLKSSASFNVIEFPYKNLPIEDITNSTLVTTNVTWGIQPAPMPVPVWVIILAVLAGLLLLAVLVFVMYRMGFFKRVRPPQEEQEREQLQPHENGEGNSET
T2 sequence (P05106 27-788, chain 2 of 2): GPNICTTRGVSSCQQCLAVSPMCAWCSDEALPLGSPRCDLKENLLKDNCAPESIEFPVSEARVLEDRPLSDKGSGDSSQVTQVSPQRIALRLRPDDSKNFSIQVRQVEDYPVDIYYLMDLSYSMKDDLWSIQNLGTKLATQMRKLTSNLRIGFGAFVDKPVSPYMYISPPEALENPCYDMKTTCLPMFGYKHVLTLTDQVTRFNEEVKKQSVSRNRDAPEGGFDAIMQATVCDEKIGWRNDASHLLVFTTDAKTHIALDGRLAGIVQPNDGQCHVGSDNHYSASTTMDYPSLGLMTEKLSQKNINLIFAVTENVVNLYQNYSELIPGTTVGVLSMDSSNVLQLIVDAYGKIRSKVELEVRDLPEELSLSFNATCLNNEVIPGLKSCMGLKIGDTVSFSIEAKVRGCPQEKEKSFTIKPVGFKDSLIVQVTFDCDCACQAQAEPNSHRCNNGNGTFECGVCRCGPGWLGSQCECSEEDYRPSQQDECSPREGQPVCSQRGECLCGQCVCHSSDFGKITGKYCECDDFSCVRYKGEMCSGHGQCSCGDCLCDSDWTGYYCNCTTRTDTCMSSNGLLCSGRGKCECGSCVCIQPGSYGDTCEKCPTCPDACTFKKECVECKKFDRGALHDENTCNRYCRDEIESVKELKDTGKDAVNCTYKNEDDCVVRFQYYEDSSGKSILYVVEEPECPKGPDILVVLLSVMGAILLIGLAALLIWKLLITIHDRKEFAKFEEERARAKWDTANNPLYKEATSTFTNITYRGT

Binder	binding result
GRGDSPK (also: coupled to Sepharose, also called GRGDSPK peptide column) [Sepharose-coupled GRGDSPK peptide]	binds

molecular target: T1, α5β1 integrin isolated from human …; test: phage panning on coated integrin; remark: another data set of the same source

Binder	binding result
CRRETAWAC (on fuse 5 phage, fused to pIII) [CRRETAWAC phage]	binds
WCRPETGWRC (on fuse 5 phage, fused to pIII) [WCRPETGWRC phage]	binds
PCREETAWRC (on fuse 5 phage, fused to pIII) [PCREETAWRC phage]	binds
WCRGETAWAC (on fuse 5 phage, fused to pIII) [WCRGETAWAC phage]	binds
GCREETAWQC (on fuse 5 phage, fused to pIII) [GCREETAWQC phage]	binds
WCRRETNWAC (on fuse 5 phage, fused to pIII) [WCRRETNWAC phage]	binds
SCRRETQWHC (on fuse 5 phage, fused to pIII) [SCRRETQWHC phage]	binds
ECRRETAWAC (on fuse 5 phage, fused to pIII) [ECRRETAWAC phage]	binds
GCRKETAWAC (on fuse 5 phage, fused to pIII) [GCRKETAWAC phage]	binds
ECRRETAWWC (on fuse 5 phage, fused to pIII) [ECRRETAWWC phage]	binds
GCRRETAWAC (on fuse 5 phage, fused to pIII) [GCRRETAWAC phage]	binds
ACRRETAWAC (on fuse 5 phage, fused to pIII) [ACRRETAWAC phage]	binds
VCRKETAWAC (on fuse 5 phage, fused to pIII) [VCRKETAWAC phage]	binds
ECRRETAWGC (on fuse 5 phage, fused to pIII) [ECRRETAWGC phage]	binds
GCRRETEWAC (on fuse 5 phage, fused to pIII) [GCRRETEWAC phage]	binds
ECRRETAWSC (on fuse 5 phage, fused to pIII) [ECRRETAWSC phage]	binds

Binder	binding result
HCRRETAWAC (on fuse 5 phage, fused to pIII) [HCRRETAWAC phage]	binds
DCRRETSWAC (on fuse 5 phage, fused to pIII) [DCRRETSWAC phage]	binds
DCRRETAWRC (on fuse 5 phage, fused to pIII) [DCRRETAWRC phage]	binds
RCRAETGWAC (on fuse 5 phage, fused to pIII) [RCRAETGWAC phage]	binds
SCRAETAWMC (on fuse 5 phage, fused to pIII) [SCRAETAWMC phage]	binds
SCRDETLWWC (on fuse 5 phage, fused to pIII) [SCRDETLWWC phage]	binds
YCRPETAWAC (on fuse 5 phage, fused to pIII) [YCRPETAWAC phage]	binds
ACRAETAWRC (on fuse 5 phage, fused to pIII) [ACRAETAWRC phage]	binds
SCREETGWGC (on fuse 5 phage, fused to pIII) [SCREETGWGC phage]	binds
RCREETAWAC (on fuse 5 phage, fused to pIII) [RCREETAWAC phage]	binds
RCRSETAWAC (on fuse 5 phage, fused to pIII) [RCRSETAWAC phage]	binds
RCREETLWAC (on fuse 5 phage, fused to pIII) [RCREETLWAC phage]	binds
WCREETGWWC (on fuse 5 phage, fused to pIII) [WCREETGWWC phage]	binds
CRSETYWKC (on fuse 5 phage, fused to pIII) [CRSETYWKC phage]	binds
DCRHETAWAC (on fuse 5 phage, fused to pIII) [DCRHETAWAC phage]	binds

molecular target: αvβ1 integrin on CHO cell line B2/v7; test: cell-based or functional assay

Binder	fold less active than the cyclic RGD peptide, inhibition of cell attachment to fibronectin [×]	fold less active than …, inhibition of cell attachment to fibronectin [×]
GACRRETAWACGA (disulfide 3-11 (inferred)) [cyclic peptide GACRRETAWACGA]	> 100	~40

molecular target: α5β1 integrin composed of human α5 and CHO β1 on B2/α27 cells (human; Chinese hamster (CHO), UniProt P08648 42-1049); test: cell-based or functional assay
Sequence (P08648 42-1049): as the sequence (P08648 42-1049, chain 1 of 2) above

Binder	fold less active than A*CRGDGWC*G, cell attachment to fibronectin [fold]	IC50 of inhibition of cell attachment to fibronectin (B2/α27 cells) [µM]	fold reduction of activity against the cyclic peptide, cell attachment to fibronectin [×]
GACELRGDGWCGA (disulfide 3-11 (inferred)) [cyclic peptide GAC*ELRGDGWC*GA]	10	–	–
GACRRETAWACGA (disulfide 3-11 (inferred)) [cyclic peptide GACRRETAWACGA]	–	30	–
GAC(Cam)RRETAWAC(Cam)GA [GACRRETAWACGA linearized by reduction and alkylation]	–	–	~50

molecular target: T1, α5β1 integrin isolated from human …; test: competition with RRETAWA phage on α5β1-coated wells

Binder	binding result
B3	binds

molecular target: T2, αvβ3 integrin isolated from human …; test: competition with CRGDCL phage on αvβ3-coated wells
Experimental: The ability of […] […] [SEQ ID NO:5] was added to compete for binding. Binding was quantitated as described above.

Binder	binding result
B3	binds
